Source: doi:10.1101/2024.07.29.605612 (bioRxiv, 2024)

Molecular target: ribosomal protein uS14 (Escherichia coli (endogenous in K-12 …, UniProt P0AG59 1-101))
Experiment: cryo-EM structure

B1: catalytically inactive mutant of RNase I (H55F/H133F) (enzyme)
chain: LALQAKQYGDFDRYVLALSWQTGFCQSQHDRNRNERDECRLQTETTNKADFLTVFGLWPGLPKSVAARGVDERRWMRFGCATRPIPNLPEARASRMCSSPETGLSLETAAKLSEVMPGAGGRSCLERYEYAKFGACFGFDPDAYFGTMVRLNQEIKESEAGKFLADNYGKTVSRRDFDAAFAKSWGKENVKAVKLTCQGNPAYLTEIQISIKADAINAPLSANSFLPQPHPGNCGKTFVIDKAGY
B1: binds.
